The record followed here is PMC5042876.

Positions count from the first letter of the chain named. In names and notes the source's numbering stands.

Substrate in this data set: CC1(C)C[C@H]2C=C(C(=O)O)[C@@H]3COC(=O)[C@]4(CO4)[C@]23C1
Kind of data set: purified protein, by the assay type. The note with it: 30 °C.

B1: wild-type PntM (Streptomyces arenae) (protein)
chain: MTDLPRLPFDNPDIMGIAPQMLALQKEGPIARVGTAGEDAWLVTRYDEVRTLLADRRLRLSNPNPQPSAKSAARAFMVALMAGDDHETEPARHAQMRSLLIPRFSTRRLRLMKTRIEHHVDELLDQLAASAPPVDLHRVLSFRLPTMVVCDLLGVPLADRERFGQWARGTFDQSDNEHSANTFQQVVDYMLELVARKRVEPGDDILSELIAEKDGALSDADIAHLGNAVLLFGYETTIVRIDLGTLLLLRNPVQRAQLAEDPGLAPAAVEEILRLGVGGKGSNALIPRYAHGDITVGETVIRTGDAVMLAIGAANYDDRAFPDGGLFDLTRVRPRSHLAFGHGARHCIGRTLARIELTAVFERLFRRLPDLRLAVPEESLRWQEHRITGGFDEIPVTF
Broadly, the Km is the substrate concentration at which the rate is half of its maximum. Broadly, the kcat is the number of substrate molecules converted per active site and unit of time at saturation. One may read the kcat/Km as the turnover number divided by the Michaelis constant. Turning to B1, under “other: Wild-type, pH 8.0”, the Km came out at 36 ± 14 µM, the kcat came to 0.03 s⁻¹ and the kcat/Km is 833 M⁻¹ s⁻¹.

B2: PntM M77S (Streptomyces arenae; M77S) (protein)
chain: B1 chain with M77S
With B2, under “other: M77S, pH 8.0”, the Km worked out at 19 ± 4 µM, the kcat was 0.000317 s⁻¹ and the kcat/Km is 16.7 M⁻¹ s⁻¹.

B3: PntM M81C-BME (Streptomyces arenae; M81C) (protein)
chain: B1 chain with M81C
In the case of B3, for the setting “other: M81C-BME, pH 8.0”, the Km stood at 280 ± 110 µM, the kcat worked out at 0.00142 s⁻¹ and the kcat/Km amounted to 5 M⁻¹ s⁻¹.

B4: PntM F232A (Streptomyces arenae; F232A) (protein)
chain: B1 chain with F232A
For the protein B4, under “other: F232A, pH 8.0, n=1”, the Km was found to be 43 ± 5 µM, the kcat was 0.000583 s⁻¹ and the kcat/Km was 13.7 M⁻¹ s⁻¹.

B5: PntM M81A (Streptomyces arenae; M81A) (protein)
chain: B1 chain with M81A
With B5, the Km (other: M81A, pH 8.0) is 37 ± 6 µM.

B6: PntM F232L (Streptomyces arenae; F232L) (protein)
chain: B1 chain with F232L
In the case of B6, for the setting “other: F232L, pH 8.0”, the Km came out at 12.0 ± 3 µM, the kcat was 0.0015 s⁻¹ and the kcat/Km was determined as 125 M⁻¹ s⁻¹.

B7: PntM M81C (Streptomyces arenae; M81C) (protein)
chain: B1 chain with M81C
In the case of B7, for the setting “other: M81C, pH 8.0”, the Km turned out to be 19 ± 3 µM, the kcat is 0.00153 s⁻¹ and the kcat/Km amounted to 81.7 M⁻¹ s⁻¹.
